{
  "source": "paper PMC3064264",
  "about": "(The Journal of neuroscience : the official journal of the …, 2010)",
  "proteins": {"B1": {"name": "kinesin-12 (rat) (natural protein, UniProt Q7TSP2 1-1385, looked up)", "chain": "MAPGCKSELRNVTNSHSNQPSNEDDAIKVFVRIRPAEEGARSADGEQSLCLSVLSQTALRLHSNPDPKTFVFDYVAGMDTTQESVFSTVAKSIVESCMSGYNGTIFAYGQTGSGKTFTMMGPSDSDNFSHNLRGVIPRSFEYLFSLIDREKEKAGAGKSFLCKCSFIEVYNEQIYDLLDSASVGLYLREHIKKGVFVVGAVEQVVASAAEAYQVLSRGWRNRRVASTSMNRESSRSHAVFTITIESMEKSSEAVNIRTSLLNLVDLAGSERQKDTHAEGMRLKEAGNINRSLSCLGQVITALVDVGNGKQRHVCYRDSKLTFLLRDSLGGNAKTAIIANVHPGSRCFGETLSTLNFAQRAKLIKNKAVVNEDTQGNVSQLQAEVKRLREQLSQFTSGQLTPGSSLARDKEKANYMEYFLEAMLFFKKSEQEKKSLVEKITQLEDLTLKKEKFIQSNKMIVKFREDQIMRLERLQKEARGSFLPEEQDRLLSELRDEIRTLREQVEHHPRLAKYAMENHSLREENRKLKLLAPVKRAHELDAQAIARLEQAFSEVSSTETNDKGLQGLPPKAIKEPSFFTSTEKLKVQLLQIQTELNNSKQEYEEFKELTRKKQLELESELQSLQKANLNLENLLEATKVCKRQEVSQLNKIHAETLKIITTPTKAYQLCSRLVPKSSPEVGSFGFLRSQSAPDNDILNEPVPPEMSEQALEAISEELRTVQEQLSVLQVKLDEEEHKNLKLQQNVDRLEHHSTQMQELFSSERSDWSKQQQDYLTQLSDLEKQLQDAQTKNDFLKCEVHDLRIVLNSADKELSLVKLEYSTFKESQEKELSQLSERHVQVQLQLDNARLENEKLLESQACLQDSYDNLQEVMKFEVDQLSKNLQNCKQENETLKSDLHNLVELFEAEKERNNKLSLQFEEDKENSSKEILKALETVRQEKQEEMARCEKQMAKVQELEESLLAAENVVSCLEKSRESDKELVTNLMNQIQELRTSAGEKSEAIDTLKQELQDISCKYTAAVADKEESKELIRRQEVDILELKETLRLRILSEDIERDMLCEDLAHATEQLNMLTEASKKHSGLLQSAQEELTKKEALIQELQHKLNQEKEEVEQKKSEYNLKMKQLEHVMGSAPEYPQSPKTPPHFQTHLAKLLETQEQEIEDGRASKMSLQHLVTKLNEDREVKNAEILRMKDQLCEMENLRLESQQLRERTWLLQTQLDDMKRQGESSSQSRPDSQQLKNEYEEEIIRERLAKNKLIEEMLKMKTDLEEVQSALDSKEKFCHRMSEEVERTRTLESRAFQEKEQLRSKLEEMYEERERTCQEMEMLRKQLEFLAEENGKLIGHQNLHQKIQYVVRLKKENIRLAEETEKLRAENVFLKERKKE"}},
  "target": "the molecule itself",
  "assay": "non-reducing SDS-PAGE and Western blot",
  "data": [
    {"protein": "B1", "values": [
      {"measurement": "stoichiometry N", "value": 2}
    ]}
  ]
}
